Test results as given in article PMC4474532.

B1: human PERK luminal domain (residues 105–403) [human] / itself (parent)
chain: LVIISTLDGRIAALDPENHGKKQWDLDVGSGSLVSSSLSKPEVFGNKMIIPSLDGALFQWDQDRESMETVPFTVESLLESSYKFGDDVVLVGGKSLTTYGLSAYSGKVRYICSALGCRQWDSDEMEQEEDILLLQRTQKTVRAVGPRSGNEKWNFSVGHFELRYIPDMETRAGFIESTFKPNENTEESKIISDVEEQEAAIMDIVIKVSVADWKVMAFSKKGGHLEWEYQFCTPIASAWLLKDGKVIPISLFDDTSYTSNDDVLEDEEDIVEAARGATENSVYLGMYRGQLYLQSSVRI

Variants of: B1
Experiment: sedimentation velocity AUC
Conditions: with itself

Row | Variant | screen value (parent: 0) [%] | screen value (parent: 0.73)
1 | LVIISTLDGRIAALDPENHGKKQWDLDVGSGSLVSSSLSKPEVFGNKMIIPSLDGALFQWDQDRESMETVPFTVESLLESSYKFGDDVVLVGGKSLTTYGLSAYSGKVRYICSALGCRQWDSDEMEQEEDILLLQRTQKTVRAVGPRSGNEKWNFSVGHFELRYIPDMETRAGFIESTFKPNENTEESKIISDVEEQEAAIMDIVIKVSVADWKVMAFSKKGGHLEWEYQFCTPIASAWLLKDGKVIPISLFDDTSYTSNDDVLEDEEDIVEANRGATENSVYLGMYRGQLYLQSSVRI [chain 1 A274N] | -52 | 0.35
2 | LVIISTLDGRIAALDPENHGKKQWDLDVGSGSLVSSSLSKPEVFGNKMIIPSLDGALFQWDQDRESMETVPFTVESLLESSYKFGDDVVLVGGKSLTTYGLSAYSGKVRYICSALGCRQWDSDEMEQEEDILLLQRTQKTVRAVGPRSGNEKWNFSVGHFELRYIPDMETRAGFIESTFKPNENTEESKIISDVEEQEAAIMDIVIKVSVADWKVMAFSKKGGHLEWEYQFCTPIASAWLLKDGKVIPISLFDDTSYTSNDDVLEDEEDIVEAARGATENSVYNGMYRGQLYLQSSVRI [chain 1 L284N] | -58 | 0.31

The next lines start with the values.

Row | screen value (parent: 0) [%] | screen value (parent: 0.73) | Variant
3 | -61 | 0.28 | LVIISTLDGRIAALDPENHGKKQWDLDVGSGSLVSSSLSKPEVFGNKMIIPSLDGALFQWDQDRESMETVPFTVESLLESSYKFGDDVVLVGGKSLTTYGLSAYSGKVRYICSALGCRQWDSDEMEQEEDILLLQRTQKTVRAVGPRSGNEKWNFSVGHFELRYIPDMETRAGFIESTFKPNENTEESKIISDVEEQEAAIMDIVIKVSVADWKVMAFSKKGGHLEWEYQFCTPIASAWLLKDGKVIPISLFDDTSYTSNDDVLEDEEDIVEAARGATENSVYLGMYRGQLYNQSSVRI [chain 1 L293N]
4 | -57 | 0.32 | LVIISTLDGRIAALDPENHGKKQWDLDVGSGSLVSSSLSKPEVFGNKMIIPSLDGALFQWDQDRESMETVPFTVESLLESSYKFGDDVVLVGGKSLTTYGLSAYSGKVRYICSALGCRQWDSDEMEQEEDILLLQRTQKTVRAVGPRSGNEKWNFSVGHFELRYIPDMETRAGFIESTFKPNENTEESKIISDVEEQEAAIMDIVIKVSVADWKVMAFSKKGGHLEWEYQFCTPIASAWLLKDGKVIPISLFDDTSYTSNDDVLEDEEDIVEAARGATENSVYLGMYRGQNYLQSSVRI [chain 1 L291N]
